Consider 1 molecule from patent US20130274185A1, “Pharmaceutical for Pseudo-Exercise Therapy” (THE UNIVERSITY OF TOKYO, priority 2010, published 2013).

Assay [1] has as its system CaMKI. The assay can be described thus: CaMKI phosphorylation in C2C12 myocytes. The settings on record: adiponectin 30 μg/ml, 0-20 min. It is filed as cell-based, mouse. Here is the method:
(§1) The mouse C2C12 myoblasts were grown in 90% Dulbecco's modified high glucose Eagle's medium containing 10% (v/v) fetal bovine serum. When the cells reached 80% confluent, the myoblasts were induced to differentiate into myocytes by replacing the medium with a low serum differentiation medium (98% Dulbecco's modified high glucose Eagle's medium, 2.5% (v/v) horse serum). The medium was changed daily. The C2C12 cells were transfected by using Pofectamine 2000 (Invitrogen) and following the manufacturer's instructions.

A further assay relates to AMPK. In words: AMPK phosphorylation in vivo (skeletal muscle and liver). The conditions noted are these: 30 μg per 10 g body weight, 10 min. Further details: species or system mice. Here is the method: (§2) Mouse full-length adiponectin was generated as described in the following documents (Nature Med. 8, 1288-1295 (2002); Nature Med. 7, 941-946 (2001); Nature 423, 762-769 (2003)).
(§3) Real-time PCR was carried out according to the method described in the following documents (Nature Med. 13, 332-339 2007); Nature 423, 762-769 (2003); J. Biol. Chem. 281, 8748-8755 (2006)). Total RNA was prepared from cells or tissues by using Trizol (Invitrogen) according to the manufacturer's instructions. Quantification of mRNA was conducted using a real-time PCR method (Nature 423, 762-769 (2003)) with slight modifications. The procedures used for immunoblotting are described in the following documents (Nature Med. 7, 941-946 (2001); J. Biol. Chem. 281, 26602-26614 (2006); J. Biol. Chem. 281, 8748-8755 (2006)). The livers or muscles were freeze-clamped in liquid nitrogen in situ (Nature Med. 7, 941-946 (2001); J. Biol. Chem. 281, 26602-26614 (2006); J. Biol. Chem. 281, 8748-8755 (2006)).

The next assay relates to soleus muscle. The assay can be described thus: Calcium imaging in skeletal muscle (soleus). The settings on record: adiponectin 30 μg/ml. In kind it is cell-based, mice. Here is the method:
From 8-10 weeks-old mice, soleus muscles were dissected. Preparations were treated with 5 μM fura-2/AM in the presence of 0.1% Chremophore EL (Sigma) for 15 min. Fluorescence images were acquired using an inverted fluorescence microscopy (IX71, Olympus) equipped with a cooled charge-coupled device (CCD) camera (iXon, Andor) and a dry objective lens (10×, NA=0.3, Olympus) through a filter set consisting of a 327-353 nm and 369-391 nm excitation filter, a 409 nm dichroic mirror, and a 515-560 nm fluorescent filter. Ligands were supplied using the superfusing Ringer's solution (150 mM NaCl, 4 mM KCl, 2.0 mM CaCl2, 1.0 mM MgCl2, 30 mM D-glucose, 5 mM HEPES (pH 7.4)).

Assay [2] concerns CaMKI. In words: CaMKI phosphorylation in skeletal muscle in vivo. Further details: species or system mice. The conditions noted are these: 30 μg per 10 g body weight, 5 min.
Text: as §2

Another assay deals with HDAC5. In words: HDAC5 phosphorylation in C2C12 myocytes. In kind it is cell-based, mouse. The conditions noted are these: adiponectin 30 μg/ml, 0-20 min. Here is the method: as §1
Assay [3] relates to C2C12 myocytes. The assay can be described thus: Mitochondrial content assay in C2C12 myocytes. It is filed as cell-based, mouse. Here is the method:
as §1
Mitochondrial content assays were carried out as described in the following document (Cell Metab. 4, 75-87 (2006)), with slight modifications. Quantification of the mitochondrial content was conducted by using mtDNA and MitoTracker Green probe (Molecular Probes) according to the method as described in the following document (Obes. Res. 13, 574-581 (2005)). MitoTracker Green probe preferentially accumulates in mitochondria regardless of the mitochondrial membrane potential and provides an accurate assessment of mitochondrial mass. Cells were washed with PBS and after addition of 100 nM MitoTracker Green FM (Molecular Probes), incubated at 37° C. for 30 min. Cells were harvested by using trypsin/EDTA and resuspended in PBS. Fluorescence intensity was detected with excitation and emission wavelengths of 490 and 516 nm, respectively, and the values thus measured were corrected for total protein (mg/ml).

A further assay concerns PGC-1α (Ppargc1a). In words: PGC-1α (Ppargc1a) expression in C2C12 myocytes. It is filed as cell-based, mouse. The conditions noted are these: C2C12 myocytes, adiponectin 10 μg/ml 1.5 hours. Here is the method: as §3, §1
The test system of assay [4] is C2C12 myocytes. The assay can be described thus: Calcium imaging in C2C12 myocytes (fura-2). In kind it is cell-based, mouse. Here is the method:
C212 myocytes cultured on glass base dishes (IWAKI) were treated with 2.5 μM fura-2/AM for 30 min. Fluorescence was measured with an Aquacosmos Calcium Imaging system (Hamamatsu Photonics). Ligands were delivered through the superfusing Ringer's solution (140 mM NaCl, 5.6 mM KCl, 5 mM HEPES, 2.0 mM sodium pyruvate, 1.25 mM KH2PO4, 2.0 mM CaCl2, 2.0 mM MgCl2, 9.4 mM D-glucose (pH 7.4)). For the calcium chelating experiment, EGTA solution (140 mM NaCl, 5.6 mM KCl, 5 mM HEPES, 2.0 mM sodium pyruvate, 1.25 mM KH2PO4, 2.0 mM MgCl2, 5.0 mM EGTA-2Na, 9.4 mM D-glucose (pH 7.4) was used for the bath solution. Fura-2 fluorescence ratios were calibrated to calcium ion signals.

[5] abbreviates: C2C12 myocytes, 30 μg/ml adiponectin.

B1: adiponectin (protein, UniProt Q60994 1-247, looked up)
chain: MLLLQALLFLLILPSHAEDDVTTTEELAPALVPPPKGTCAGWMAGIPGHPGHNGTPGRDGRDGTPGEKGEKGDAGLLGPKGETGDVGMTGAEGPRGFPGTPGRKGEPGEAAYVYRSAFSVGLETRVTVPNVPIRFTKIFYNQQNHYDGSTGKFYCNIPGLYYFSYHITVYMKDVKVSLFKKDKAVLFTYDQYQEKNVDQASGSVLLHLEVGDQVWLQVYGDGDHNGLYADNVNDSTFTGFLLYHDTN
modifications: full-length
notes: adipokine, internal ligand of adiponectin receptor 1; recombinant murine full-length adiponectin
As for B1, in the assay on CaMKI [1], the CaMKI phosphorylation entry was “rapid, robust, and transient increase”. Also, the “phosphorylation of AMPK in liver” value in the assay on AMPK (both genotypes) was “increased the phosphorylation of AMPK in the liver of both genotypes”. Moreover, the “phosphorylation of AMPK in skeletal muscle” value in the assay with AMPK (control littermates) was “increased the phosphorylation of AMPK in the muscle of control littermates”. Moreover, the “intracellular calcium ion concentration in soleus muscle (fura-2)” value with soleus muscle (control mice) was “increased the intracellular calcium ion concentration”. In addition, the “calcium responses of soleus muscle” value with soleus muscle (muscle-R1KO mice) was “almost completely disappeared”. For the same molecule, in the assay with CaMKI [2], the “phosphorylation of CaMKI in skeletal muscle in vivo” value was “significantly increased”. For the same molecule, the HDAC5 phosphorylation entry in the assay with HDAC5 is given as “increased HDAC5 phosphorylation”. Further, the mitochondrial biogenesis result with C2C12 myocytes [3] (C2C12 myocytes expressing PGC-1α-R13 mutant) was “failed to further induce mitochondrial biogenesis”. Besides, in the assay with C2C12 myocytes [3] (setting [5]), the “amount of mitochondria as assessed by MitoTracker green” value is “increased” and the “mitochondrial DNA content” value was “increased a mitochondrial DNA content”. For the same molecule, the PGC-1α expression result in the assay on PGC-1α (Ppargc1a) is reported as “increase in PGC-1α expression”. Further, in the assay with C2C12 myocytes [4], the “dose dependence of calcium response” value is listed as “dose-dependent responses”. Moreover, in the assay on C2C12 myocytes [4] (adiponectin 30 μg/ml), the “intracellular calcium ion concentration (fura-2)” value is reported as “increased an intracellular calcium ion concentration”.
